# T1: Il12rb1 (mouse, UniProt Q60837 20-738)
# T1 construct: whole, on cells; Tie to CD5L:p40 rests on loss of staining and of effect in knockout cells; also called Ilrb1
# T1 sequence (looked up): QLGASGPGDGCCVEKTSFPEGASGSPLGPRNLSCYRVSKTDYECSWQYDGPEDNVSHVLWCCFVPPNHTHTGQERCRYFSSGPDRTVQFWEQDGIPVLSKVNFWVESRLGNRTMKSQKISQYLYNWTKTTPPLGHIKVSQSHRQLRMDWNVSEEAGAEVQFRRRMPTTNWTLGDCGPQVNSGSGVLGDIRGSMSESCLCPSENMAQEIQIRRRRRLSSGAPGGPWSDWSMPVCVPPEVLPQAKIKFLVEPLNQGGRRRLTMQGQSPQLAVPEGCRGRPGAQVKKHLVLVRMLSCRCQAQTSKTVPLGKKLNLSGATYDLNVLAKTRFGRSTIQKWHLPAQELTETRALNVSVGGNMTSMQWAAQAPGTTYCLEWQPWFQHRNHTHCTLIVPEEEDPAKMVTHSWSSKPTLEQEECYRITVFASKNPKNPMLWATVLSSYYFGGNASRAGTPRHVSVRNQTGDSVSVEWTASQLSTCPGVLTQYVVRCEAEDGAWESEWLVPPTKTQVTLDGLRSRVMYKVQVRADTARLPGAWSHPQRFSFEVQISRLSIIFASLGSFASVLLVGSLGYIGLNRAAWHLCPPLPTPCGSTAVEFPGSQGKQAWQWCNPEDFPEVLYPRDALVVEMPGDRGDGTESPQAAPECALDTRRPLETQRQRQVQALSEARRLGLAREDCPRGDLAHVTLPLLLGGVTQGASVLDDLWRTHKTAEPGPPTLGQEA
# What was measured:
# [1] = target: the molecule itself; assay: purification of recombinant CD5L (FIG. 8A)
# Il12rb1 = target: T1, Il12rb1; assay: flow cytometry, His-tagged CD5L:p40 and anti-His antibody on T cells of wildtype or Il12rb1KO mice (FIG. 56A)
# Excerpt: FIG. 56A-F—Recombinant CD5L:p40 can bind to Th17 cells directly and alters T cell signaling pathways and metabolism. A) recombinant CD5L:p40 (his-tagged) were used to stain pathogenic Th17 cells (IL-1b+IL-6+IL-23),Th1 cells (IL-12) or Th0 cells differentiated from naïve T cells isolated from wildtype or Il12rb1KO mice followed by anti-His antibodies and analysis by flow cytometry. B-D) As Stat3 and Stat4 regulate IL-17 responses, we analyzed pStat3 and pStat4 expression. B-C) CD5L:p40 suppresses pStat3. 28 nM recombinant CD5L:p40 were used to stimulate naïve T cells in the presence of 10 ug/ml of anti-CD3 antibodies (TCR) with or without other indicated cytokines (B) or to stimulate Th17p cells (C) and cells were harvested for phosphoflow preparation and analysis of pStat3 at the indicated time points. D) CD5L:p40 suppresses pStat4 but not pTyk2. Western blotting analysis of pStat4 and pTyk2 expression by Th17p cells (equal protein loaded per lane) differentiated from naïve T cells isolated from wildtype mice and subjected to stimulation by either control (C), CD5L monomer (L), CD5L homodimer (LL), CD5L:p40 (L4) or p40:p40 homodimer (44) for the indicated time. E) CD5L:p40 suppresses pRictorY, pS6 and p38. To study whether CD5L:p40 influence other signaling pathways, we analysed several other phospho-proteins as indicated. […]
binding result (Il12rb1),Binder,binding result [1]
,"recombinant CD5L monomer with His tag (mCD5L construct) (ligand, Made by Biolegend in 293E cells, purified on Ni Sepharose and Superdex S200 (monomer fraction); also called soluble CD5L; sCD5L) ESPTKVQLVGGAHRCEGRVEVEHNGQWGTVCDDGWDRRDVAVVCRELNCGAVIQTPRGASYQPPASEQRVLIQGVDCNGTEDTLAQCELNYDVFDCSHEEDAGAQCENPDSDLLFIPEDVRLVDGPGHCQGRVEVLHQSQWSTVCKAGWNLQVSKVVCRQLGCGRALLTYGSCNKSTQGKGPIWMGKMSCSGQEANLRSCLLSRLENNCTHGEDTWMECEDPFELKLVGGDTPCSGRLEVLHKGSWGSVCDDNWGEKEDQVVCKQLGCGKSLHPSPKTRKIYGPGAGRIWLDDVNCSGKEQSLEFCRHRLWGYHDCTHKEDVEVICTDFDVTGHHHHHHH",binds
binds,"recombinant CD5L:p40 heterodimer (genetically linked mouse p40-linker-CD5L with His tag) (ligand, also called mCD5L:p40; rCD5L:p40) MWELEKDVYVVEVDWTPDAPGETVNLTCDTPEEDDITWTSDQRHGVIGSGKTLTITVKEFLDAGQYTCHKGGETLSHSHLLLHKKENGIWSTEILKNFKNKTFLKCEAPNYSGRFTCSWLVQRNMDLKFNIKSSSSSPDSRAVTCGMASLSAEKVTLDQRDYEKYSVSCQEDVTCPTAEETLPIELALEARQQNKYENYSTSFFIRDIIKPDPPKNLQMKPLKNSQVEVSWEYPDSWSTPHSYFSLKFFVRIQRKKEKMKETEEGCNQKGAFLVEKTSTEVQCKGGNVCVQAQDRYYNSSCSKWACVPCRVRSGGGSGGGSGGGSGGESPTKVQLVGGAHRCEGRVEVEHNGQWGTVCDDGWDRRDVAVVCRELNCGAVIQTPRGASYQPPASEQRVLIQGVDCNGTEDTLAQCELNYDVFDCSHEEDAGAQCENPDSDLLFIPEDVRLVDGPGHCQGRVEVLHQSQWSTVCKAGWNLQVSKVVCRQLGCGRALLTYGSCNKSTQGKGPIWMGKMSCSGQEANLRSCLLSRLENNCTHGEDTWMECEDPFELKLVGGDTPCSGRLEVLHKGSWGSVCDDNWGEKEDQVVCKQLGCGKSLHPSPKTRKIYGPGAGRIWLDDVNCSGKEQSLEFCRHRLWGYHDCTHKEDVEVICTDFDVTGHHHHHHHHGGQ",
